# B1: F027201062 (bispecific antibody)
# chain: DVQLVESGGGVVQPGGSLRLSCAASGRTFSNYAMAWFRQAPGKEREFVAVISYAGGRTYYADSVKGRFTISRDNAKNTVYLQMNSLRPEDTALYYCAAVDSPLIATHPRGYDYWGQGTLVTVSSGGGGSGGGSEVQLVESGGGVVQPGGSLRLSCAASGFTFRSFGMSWVRQAPGKGPEWVSSISGSGSDTLYADSVKGRFTISRDNSKNTLYLQMNSLRPEDTALYYCTIGGSLSRSSQGTLVTVSSGGGGSGGGSEVQLVESGGGVVQPGGSLRLSCAASGFTLAYYAIGWFRQAPGKEREGVSCISGSVGTTYYADSVKGRFTISRDNAKNTVYLQMNSLRPEDTALYYCVRSSWFDCGVQGRDLGNEYDYRGQGTLVTVSSGGGGSGGGSEVQLVESGGGVVQPGGSLRLSCTASGFTFSTADMGWFRQAPGKGREFVARISGIDGTTYYDEPVKGRFTISRDNSKNTVYLQMNSLRPEDTALYYCRSPRYADQWSAYDYWGQGTLVKVSSA
# notes: anti-IL-6 (17C04, 6B12), anti-HSA (ALB23002), anti-TNF-α (6C11), C-terminal alanine; produced in Pichia pastoris; also called ISVD construct F027201062; Nanobody F027201062
# Legend:
# Test in all cases: cell-based or functional assay
# human TNF-α = human TNF-α (human, UniProt P01375 77-233)
# Chain of human TNF-α (P01375 77-233 limits assumed): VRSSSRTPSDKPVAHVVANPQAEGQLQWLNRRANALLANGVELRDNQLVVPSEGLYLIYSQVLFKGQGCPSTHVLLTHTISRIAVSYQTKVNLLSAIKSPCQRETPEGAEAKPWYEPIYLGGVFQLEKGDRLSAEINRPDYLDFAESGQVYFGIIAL
# cyno TNF-α = cyno TNF-α (cynomolgus monkey, UniProt P79337 77-233)
# Chain of cyno TNF-α (P79337 77-233 limits assumed): as the sequence (P01375 77-233 limits assumed) above, with L37V, R44T, T72N, R138L counted along it
# cyno IL-6 = target: T1, cyno IL-6 (cynomolgus monkey, UniProt P79341 28-212, limits assumed)
# T1 sequence (looked up): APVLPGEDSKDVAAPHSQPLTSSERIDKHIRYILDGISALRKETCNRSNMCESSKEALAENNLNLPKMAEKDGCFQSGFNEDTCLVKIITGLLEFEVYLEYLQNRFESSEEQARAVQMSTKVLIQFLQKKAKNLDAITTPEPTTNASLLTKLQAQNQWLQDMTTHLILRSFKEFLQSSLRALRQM
binder,measurement,setting,value
B1,IC50 hTNF-α Nfkb assay,human TNF-α,0.0978 nM
same,Ratio IC50 cyno TNFα/hTNFα,cyno TNF-α,2 ratio
same,Ratio IC50 cyno IL-6/hIL-6,cyno IL-6,0.5 ratio

# Reference: patent publication US20240301049A1 (Ablynx, published 2024)
